From patent US20130101549A1 (Biogen, published 2013) come the findings set out here.

Test [1] addresses T1, EGFR on MDA-MB-468 cells (UniProt P00533 25-1210, limits assumed).
T1 construct: whole, on cells; also called MDA-MB-468 tumor cell line (EGFR+, HER2-)
The test is described as follows: FACS on MDA-MB-468 cells (EGFR+, HER2-).

Test [2] has as its target T2, murine HER2 on CHO cells (mouse, UniProt P70424 23-1256).
T2 construct: whole, on cells; also called mHER2/ErbB2; murine Her2-CHO
The test is described as follows: FACS on CHO cells expressing murine HER2.

Test [3] deals with T3, Her2-Fc D1-D2-D3-D4 (MR069).
T3 construct: made in house, kept apart from the R&D Systems HER2-Fc; also called ErbB2-Fc full length ECD
The test is described as follows: ELISA, HER2-Fc construct captured by anti-huFc, Fab from 1 ug/ml in 5-fold steps, HRP anti-kappa/lambda. How it is done: (§1) Nunc Maxisorp ELISA plates were coated with 5 ug/ml rabbit pAbs anti-human Fc gamma in PBS overnight at 4 degrees. Plates were washed one time with PBST (PBS, 0.05% tween 20) and blocked with 1% BSA in PBS for one hour at room temperature. Plates were washed one time with PBST and incubated with 1 ug/ml HER2-Fc fusion protein for one hour. Plates were washed three times with PBST and dilutions of Fab (four 5-fold serial dilutions, starting at 1 ug/ml) in block were added and incubated for ninety minutes. Plates were washed three times with PBST and incubated with 1:2,000 HRP-labelled goat anti-human kappa (Southern Biotech cat#2060-05) and HRP-labelled goat anti-human lambda (Southern Biotech cat#2070-05) in block for one hour at room temperature. Plates were washed three times with PBST, developed with TMB solution for 5 minutes, and stopped with equal volume 1 N H₂SO₄. Absorbance values were read at 450 nm.
For orientation: ELISA stands for enzyme-linked immunosorbent assay.

For test [4], the target named is T4, Her2-Fc D1 (MR066).
T4 construct: also called ErbB2-Fc Domain 1
T4 chain: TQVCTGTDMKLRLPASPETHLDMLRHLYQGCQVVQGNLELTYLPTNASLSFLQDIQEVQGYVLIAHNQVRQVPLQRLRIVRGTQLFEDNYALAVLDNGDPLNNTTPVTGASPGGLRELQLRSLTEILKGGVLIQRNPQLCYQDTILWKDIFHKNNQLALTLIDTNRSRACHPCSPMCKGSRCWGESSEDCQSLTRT
The description is as above. How it is done:
as §1

In test [5] the target is T5, Her2-Fc D1-D2-D3 (MR068).
T5 construct: also called ErbB2-Fc Domains 1-3
The description is as above. How it is done: as §1

Test [6] has as its target T6, Her2-Fc D1-D2 (MR067).
T6 construct: also called ErbB2-Fc Domains 1-2
T6 chain: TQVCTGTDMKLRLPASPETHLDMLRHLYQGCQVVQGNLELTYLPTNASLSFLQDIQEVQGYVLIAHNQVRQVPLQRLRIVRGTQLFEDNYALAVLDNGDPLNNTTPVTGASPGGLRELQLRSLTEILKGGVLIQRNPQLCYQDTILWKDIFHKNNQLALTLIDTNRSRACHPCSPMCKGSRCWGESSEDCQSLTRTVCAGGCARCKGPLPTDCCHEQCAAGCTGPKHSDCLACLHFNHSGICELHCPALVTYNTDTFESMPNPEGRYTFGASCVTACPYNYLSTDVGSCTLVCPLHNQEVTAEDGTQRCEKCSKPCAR
The description is as above. How it is done:
as §1

Test [7] has as its target T7, human HER2/ErbB2 on cells (human, UniProt P04626 23-1255).
T7 construct: whole, on cells; also called hHER2/ErbB2; wild type HER2/ErbB
The test is described as follows: flow cytometry on CHO cells expressing human HER2. How it is done: CHO cells (Chinese Hamster Ovary cells) stably transfected with hHER2 expression vector and selected in G418 containing medium. G418 resistant clones were pooled and split 24 hours prior to the setup of the assay to obtain 70% confluent monolayer. Routinely, CHO cell line was maintained within 20 passages. Cells were lifted with cell dissociation buffer (Gibco catalog #13151-014), counted, washed and adjusted to 1×10⁶ cells/ml and one ml of cells were then added to each tube (12×75 mm tube Falcon catalog #352054). Cells were pelleted and supernatant removed by centrifugation at 1200 rpm for 5 min and 100 μl of diluted antibodies were then added to the cell pellet. Purified Fabs were tested at a starting concentration of either 210 or 60 μg/ml with 1:3 dilutions in FACS buffer, down to 0.001 μg/ml. FACS buffer used throughout the assay was PBS (without Ca^{+±}/Mg^{+±}) containing 1% BSA (Sigma catalog #A-7906) and 0.1% Sodium Azide (Sigma catalog #S2002). Samples were allowed to incubate on ice for 1 hour and 15 minutes then were washed with 2 ml FACS buffer and centrifuged at 1200 rpm for 5 minutes at 4° C. The supernatant was aspirated and 100 μl of the secondary detection antibody was added to each corresponding tube in FACS buffer. Samples were then incubated for 30 minutes on ice, in the dark. Cells were washed as described above, then, re-suspended in 250 μl FACS buffer per tube/sample.
A full titration was performed on MCF7 and SKBR3 tumor cell lines, and human Her2-CHO and murine Her2-CHO cell lines in order to calculate an approximate EC50 (data not shown, see summary in Table 1).
On the technique in general: A flow cytometer gives signals particle by particle.

B1: BIIB65H09 Fab (Fab, V domains shown)
VH: EVQLLESGGGLVQPGGSLRLSCAASGFTFSWYSMWWVRQAPGKGLEWVSSIVSSGGQTRYADSVKGRFTISRDNSKNTLYLQMNSLRAEDTAVYYCARVKGYYYYIDVWGKGTTVTVSS
VL: DIQMTQSPGTLSLSPGERATLSCRASQSVDSSYLSWYQQKPGQAPRLLIYGASTRATGIPARFSGSGSGTDFTLTVSRLEPEDFAVYYCQQHGYSSRTFGQGTKVEIK
notes: Soluble human Fab from a naive phagemid Fab library
Broadly, the EC50 is the concentration giving half of the maximal effect. Read a high EC50 as a less potent agent. B1: the binding result in test [1] is “no binding”; in test [2] it was “no binding”; in test [3], “binds”; in test [4], “no binding (tested: 1 ug/ml)”; in test [5] it was “binds”; in test [6], “no binding (tested: 1 ug/ml)”. In addition, the EC50 in test [7] stood at 20 nM.

B2: BIIB66C01 Fab (Fab, V domains shown)
VH: EVQLLESGGGLVQPGGSLRLSCAASGFTFSWYSMSWVRQAPGKGLEWVSSISSSGGPTHYADSVKGRFTISRDNSKNTLYLQMNSLRAEDTAVYYCARDSSYSGTSWGQGTLVTVSS
VL: QYELTQPPSVSGTPGQRVTISCSGSSSNIGSEYVYWFQQLPGTAPRLLIYRNDQRPSGVPDRFSGSKSGTSASLAISGLRSEDETDYYCTTWDDSLSGPVFGGGTKLTVL
notes: as for B1
For the molecule B2, the binding result in test [1] is given as “no binding”; in test [2], “no binding”; in test [3], “binds”; in test [4], “no binding (tested: 1 ug/ml)”; in test [5] it was “binds”; in test [6] it was “no binding (tested: 1 ug/ml)”. The same molecule yielded an EC50 in test [7] of 12 nM.

B3: BIIB66A12 Fab (Fab, V domains shown)
VH: EVQLLESGGGLVQPGGSLRLSCAASGFTFSMYSMQWVRQAPGKGLEWVSVIGSSGGQTGYADSVKGRFTISRDNSKNTLYLQMNSLRAEDTAVYYCARVRDYYGSGSYYLDPWGQGTLVTVSS
VL: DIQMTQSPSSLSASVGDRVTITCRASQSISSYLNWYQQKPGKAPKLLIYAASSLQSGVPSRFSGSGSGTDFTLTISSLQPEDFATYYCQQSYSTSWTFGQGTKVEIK
notes: as for B1
Regarding B3, the binding result in test [1] was “no binding”; in test [2], “no binding”; in test [3], “binds”; in test [4] it was “no binding (tested: 1 ug/ml)”; in test [5], “binds”; in test [6], “no binding (tested: 1 ug/ml)”. In test [7], this molecule had an EC50 of 60 nM.

B4: BIIB69A09 Fab (Fab, V domains shown)
VH: EVQLLESGGGLVQPGGSLRLSCAASGFTFSRYNMWWVRQAPGKGLEWVSVIRSSGGYTGYADSVKGRFTISRDNSKNTLYLQMNSLRAEDTAVYYCARWNSGYSYWDYYYGMDVWGQGTTVTVSS
VL: DIQMTQSPSSLSASVGDRVTITCRASQSISSYLNWYQQKPGKAPKLLIYAASSLQSGVPSRFSGSGSGTDFTLTISSLQPEDFATYYCQQFNTYPITFGPGTKVDIK
notes: as for B1
As to B4, the binding result in test [1] is recorded as “no binding”; in test [2], “no binding”; in test [3], “binds”; in test [4] it was “binds”; in test [5] it was “binds”; in test [6], “binds”. In addition, the EC50 in test [7] came to 2 nM.

B5: BIIB65B03 Fab (Fab, V domains shown)
VH: EVQLLESGGGLVQPGGSLRLSCAASGFTFSWYRMNWVRQAPGKGLEWVSSIYSSGGPTNYADSVKGRFTISRDNSQNTLYLQMNSLRAEDTAVYYCTREKPDYYDSSGYLDYWGQGTLVTVSS
VL: DIQMTQSPGTLSLSPGERSTLSCRASQSVSSSYLAWYQQKPGQAPRLLIYGASSRATGIPDRFSGSGSGTDFTLTISRLEPEDFGVYYCHQYGRPPVFGPGTKVDIK
notes: as for B1
Regarding B5, the binding result is on record as “no binding” in test [1]; “no binding” in test [2]; “binds” in test [3]; “no binding (tested: 1 ug/ml)” in test [4]; “binds” in test [5]; “no binding (tested: 1 ug/ml)” in test [6]. This molecule returned a concentration for a half-maximal effect (EC50) in test [7] of 15 nM.

B6: BIIB65C10 Fab (Fab, V domains shown)
VH: EVQLLESGGGLVQPGGSLRLSCAASGFTFSYYPMMWVRQAPGKGLEWVSSIWPSGGFTKYADSVKGRFTISRDNSKNTLYLQMNSLRAEDTATYYCARVSSSSWYGYLYWGQGTLVTVSS
VL: not shown
notes: as for B1
For the molecule B6, the binding result in test [1] was “no binding”; in test [2] it was “no binding”; in test [3], “binds”; in test [4], “no binding (tested: 1 ug/ml)”; in test [5], “binds”; in test [6], “binds”. For the same molecule, the EC50 in test [7] amounted to 6 nM.

B7: BIIB67F10 Fab (Fab, V domains shown)
VH: EVQLLESGGGLVQPGGSLRLSCAASGFTFSPYMMVWVRQAPGKGLEWVSWISPSGGYTFYADSVKGRFTISRDNSKNTLYLQMNSLRAEDTAVYYCAYGTYPLTYWGQGTLVTVSS
VL: QSELTQTPSVSVSPGQTASITCSGDKLGDKYVSWFQLKPGQSPLLVIYQDSKWPSGIPERFSGSNSGNTATLTISGTQATDEADYYCQVWDISHVVFGGGTKLTVL
notes: as for B1
For the molecule B7, the binding result in test [1] is recorded as “no binding”; in test [2], “no binding”; in test [3], “binds”; in test [4], “binds”; in test [5], “binds”; in test [6] it was “binds”. The molecule also displayed an EC50 in test [7] of 2 nM.

B8: BIIB67F11 Fab (Fab, V domains shown)
VH: EVQLLESGGGLVQPGGSLRLSCAASGFTFSNYYMMWVRQAPGKGLEWVSVIGSSGGMTNYADSVKGRFTISRDNSKNTLYLQMNSLRAEDTAVYYCARGYPTGYYDSSGWVYSYYGIDVWGQGTTVTVSS
VL: DIQMTQSPSSLSASIGDRVTITCQASQDTDNRLHWYQQKSGRAPKLLIYDAVNLKRGVPSRFRGSGSGTNFILTITNLQPEDMATYFCQHSDGLSLAFGGGTKLEIK
notes: as for B1
As for B8, the binding result in test [1] is on record as “no binding”; in test [2] it was “no binding”; in test [3] it was “binds”; in test [4] it was “binds”; in test [5] it was “binds”; in test [6], “binds”. In addition, in test [7], the EC50 was 7 nM.
